Source: patent publication US20070160576A1, “IL-17A/F heterologous polypeptides and therapeutic uses thereof” (Genentech, Inc., priority 2001, published 2007)

T1: IL-17RH1 (PRO5801) (Homo sapiens, UniProt Q9NRM6)
T1 construct: the extracellular domains (ECDs) of either of the two receptors IL-17R (designated PRO1) and IL-17RH1 (PRO5801)
T1 sequence (Q9NRM6 18-292 limits assumed): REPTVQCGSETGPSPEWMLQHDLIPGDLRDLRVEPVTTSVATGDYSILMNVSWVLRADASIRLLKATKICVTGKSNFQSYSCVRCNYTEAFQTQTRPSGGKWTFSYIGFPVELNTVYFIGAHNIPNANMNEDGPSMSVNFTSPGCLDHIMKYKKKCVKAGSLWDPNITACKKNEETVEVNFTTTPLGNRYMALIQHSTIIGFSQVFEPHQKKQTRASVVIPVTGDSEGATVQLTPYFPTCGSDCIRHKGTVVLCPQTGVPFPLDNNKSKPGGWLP

B1: PRO21175 (IL-17D ligand) (ligand, UniProt Q8TAD2 16-202, looked up)
chain: AGAPRAGRRPARPRGCADRPEELLEQLYGRLAAGVLSAFHHTLQLGPREQARNASCPAGGRPADRRFRPPTNLRSVSPWAYRISYDPARYPRYLPEAYCLCRGCLTGLFGEEDVRFRSAPVYMPTVVLRRTPACAGGRSVYTEAYVTIPVGCTCVPEPEKDADSINSSIDKQGAKLLLGPNDAPAGP
B2: IL-17F: human IL-17F ligand, SEQ ID NO:4 (protein, listed as Homo sapiens)
chain: MTVKTLHGPAMVKYLLLSILGLAFLSEAAARKIPKVGHTFFQKPESCPPVPGGSMKLDIGIINENQRVSMSRNIESRSTSPWNYTVTWDPNRYPSEVVQAQCRNLGCINAQGKEDISMNSVPIQQETLVVRRKHQGCSVSFQLEKVLVTVGCTCVTPVIHHVQ

Experiments:
[1] = target: T2, human IL-17 receptor (IL-17R, PRO1) as tested in the receptor/ligand screen (human, UniProt Q96F46 33-320, limits assumed); assay: receptor/ligand screen, FIG. 14
T2 construct: also called IL-7R (as misprinted)
Source text: A PRO polypeptide of the present invention suspected of being a ligand for a receptor is expressed as a fusion protein containing the Fc domain of human IgG (an immunoadhesin). Receptor-ligand binding is detected by allowing interaction of the immunoadhesin polypeptide with cells (e.g. Cos cells) expressing candidate PRO polypeptide receptors and visualization of bound immunoadhesin with fluorescent reagents directed toward the Fc fusion domain and examination by microscope. Cells expressing candidate receptors are produced by transient transfection, in parallel, of defined subsets of a library of cDNA expression vectors encoding PRO polypeptides that may function as receptor molecules. Cells are then incubated for 1 hour in the presence of the PRO polypeptide immunoadhesin being tested for possible receptor binding. The cells are then washed and fixed with paraformaldehyde. The cells are then incubated with fluorescent conjugated antibody directed against the Fc portion of the PRO polypeptide immunoadhesin (e.g. FITC conjugated goat anti-human-Fc antibody). The cells are then washed again and examined by microscope. A positive interaction is judged by the presence of fluorescent labeling of cells transfected with cDNA encoding a particular PRO polypeptide receptor or pool of receptors and an absence of similar fluorescent labeling of similarly prepared cells that have been transfected with other cDNA or pools of cDNA. If a defined pool of cDNA expression vectors is judged to be positive for interaction with a PRO polypeptide immunoadhesin, the individual cDNA species that comprise the pool are tested individually (the pool is “broken down”) to determine the specific cDNA that encodes a receptor able to interact with the PRO polypeptide immunoadhesin.
In another embodiment of this assay, an epitope-tagged potential ligand PRO polypeptide (e.g., 8 histidine “His” tag) is allowed to interact with a panel of potential receptor PRO polypeptide molecules that have been expressed as fusions with the Fc domain of human IgG (immunoadhesins). Following a 1 hour co-incubation with the epitope tagged PRO polypeptide, the candidate receptors are each immunoprecipitated with protein A beads and the beads are washed. Potential ligand interaction is determined by Western blot analysis of the immunoprecipitated complexes with antibody directed towards the epitope tag.

[2] = test system: TK-10 cells; assay: IL-8 and IL-6 production in TK-10 cells (ELISA of conditioned media); type: cell-based, human; conditions: TK-10 cells, 24 hours, IL-8 ELISA
Method: Fractions were tested by incubation with TK-10 cells for 24 hours (0.033 microliters fraction/ml of cell culture media). Conditioned media was then collected and IL-8 and IL-6 concentration measurements were performed on each fraction by ELISA. […] Gels, blots, amino acid sequence and activity assays were run on this fraction (FIG. 3). Alternatively, fraction 31 and the remaining volume of fraction 32, from the HiLoad S Sepharose run were pooled and dialyzed against Buffer A for eight hours using a 10 kD cutoff membrane and passed through a 0.2 micron filter. […] Fractions 26-43 were assayed and protein concentrations were determined by amino acid analysis. Pure IL-17A/F was identified in fractions 31-33 as a single protein with apparent molecular mass of 30-35 kD. The concentrations of fractions 31, 32 and 33 were 0.258, 0.359 and 0.291 mg/ml respectively.
IL-17A/F, IL-17 and IL-17F were incubated with TK-10 cells at the indicated concentrations for 24 hours.
TK-10 conditioned media was collected and analyzed by IL-8 ELISA and IL-6 ELISA.

[3] = target: T3, IL-17R (Homo sapiens, UniProt Q96F46); assay: SPR (BIAcore) binding measurements; conditions: IL-17R up to 1 ┘M
T3 construct: the extracellular domains (ECDs) of either of the two receptors IL-17R (designated PRO1) and IL-17RH1 (PRO5801)
Method: (§1) The kinetics and affinity of IL-17, IL-17E (PRO10272), or IL-17F (PRO20110) binding to IL-17R or IL-17RH1 (PRO5801) were determined by SPR measurements on a Pharmacia BIAcore 1000 instrument (Phamacia Biosensor, Piscataway N.J.). IL-17 ligand or receptor was immobilized onto a flow cell of a CM5 sensor chip via random coupling to amino groups, N-hydroxysuccinimide chemistry, by using a protocol developed by the manufacturer. An immobilization level of about 500 resonance units (RU) was obtained for IL-17R, IL-17RH1, and IL-17F, whereas IL-17 and IL-17E immobilization levels were 1200 and 1500 RU, respectively. A strong signal was obtained for IL-17R binding to immobilized IL-17. […] After blocking unreacted sites with ethanolamine, binding measurements were performed using a flow rate of 25 ┘L/min. Sensorgrams-were obtained for a series of six, two-fold serially diluted protein solutions. The highest concentration used was 1000 or 500 nM protein and the solutions were prepared in the running buffer, PBS containing 0.05% Tween-20. The sensor chip surface was regenerated between binding cycles by injection of a 25 ┘L aliquot of 0.1 M acetic acid, 0.2 M NaCl, pH 3 to elute non-covalent bound protein. Sensorgrams were evaluated according to a 1:1 binding model by non-linear regression analysis using software supplied by the manufacturer. In separate experiments to measure competition between IL-17 variants for binding receptors, a fixed concentration of receptor was incubated with a varied concentration of IL-17 protein followed by injection of this mixture onto a flow cell having immobilized IL-17 protein. The amount of bound receptor was determined from the resonance signal obtained after completion of the association phase.

[4] = target: T1, IL-17RH1 (PRO5801); assay: SPR (BIAcore) binding measurements; conditions: IL-17RH1 up to 0.5 ┘M
Method: as §1

Molecule | binding result [1] | IL-8 production [2] | binding of IL-17R to immobilized IL-17F [3] | binding of IL-17RH1 to immobilized IL-17F [4]
B1 | no binding |  |  | 
B2 |  | production of IL-8 | no binding | no binding
